In the nanobody polyreactivity screen of Harvey et al. (2022):

Test: yeast display, Sf9 membrane polyspecificity reagent, FACS + sequencing; frameworks hold sequencing errors
Outline: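 After 36–48 hours of galactose induction, yeast (Saccharomyces cerevisiae BJ5465) displaying a synthetic nanobody library were stained at 4 °C for 1 hour with 10% biotinylated, detergent-solubilized Sf9 membrane reagent. Streptavidin microbeads enriched the stained cells before FACS sorting into low and high (top ~1%) gates on anti-HA and streptavidin fluorescence. Each clone's polyreactivity label reflects its gate of origin.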

Row | Sequence | polyreactivity (PSR sort gate)
1 | HVQLVESGGRLVQAGGSLRLSCAASGSIFVPNAMGWYRQAPGKERELVATISWSGGSTYADCVKGRFTISRDNAKNTVYLQMKSLKPEDTAVYYCNARRYDPGSRYDYWGQGTQVTVSS | low polyreactivity
2 | QVQLVESGGGLVQAGGSLRLSCAASGFTFSQYVMGWSRQAPGKERELVASITGKGGSTRYADSVKGRFTISRDNAKNTVYLQMNSLKQEDTAVYYCAARYVYFRWGSFDYWGQGTQVTVSS | high polyreactivity
3 | QVQLVESGGGLVQAGGSLRLSCAASGSIFTWNGMGWYRQAPGKERELVAAISGSGGTTYADSVKGRFTISRDNAKNTVYLQMNSLKPEDTAVYYCARRVWVRDYPFGYARYGYWGQGTQVTVSS | low polyreactivity
4 | QVQLVESGGGLVQAGGSLRLSCAASGSTFLSNAMGWYRQAPGKERELVASINWIGGSTRYADSVKGRFTISRDNAKNTVYLQMNSLKPEDTAVYYCAVELWWKWPFYYWGQGTQVTVSS | high polyreactivity
5 | QDQLVESGGGLVQAGGSLRLSCAASGLTIIFNAMGWYRQAPGKERELVADISSGVNTNYADSVKGRFTISRDNAKNTVYLQMNSLKPEDTAVYYCAARLAQSTGYGYWGQGTQVTVSS | low polyreactivity
6 | QVQLVESGGVLVQAGGSLRLSCAASGFINLRYAMGWYRQAPGKERELVAAITSGGNTYYADSVKGRFTISRDNAKNTVSLQRNSLKQEDTAVYYCAAERFVITYPISRYYYWGQGTQVTVSS | low polyreactivity
7 | QVQLVESGGGLVQAGGSLRLSCAASGSTFDYYAMGWYRQAPGKEREFVASINWNGARTYYADSVKGRFTISRDNAKNTVYLQMNSLKPEDTAVYYCAAYTKRYLYNYWGQGTQVTVSS | high polyreactivity
8 | QVQLVESGGGLVQAGGSLRLSCAASGSTFEGNDMGWYRQAPGKERELVASITSDTSTYADSVKGRFTISRDNAKNTVYLQMNSLKPEDTAVYYCNTGSYAETYYWITDPYDYWGQGTQVNVSS | low polyreactivity
9 | QVQLVESGGGLVQEGGSLRLSCAASGYIFVRYAMGWYRQAPGKEREFVAAISSSGGSTRYADSVKGRFTISRDNAKYTVYLQMHRLKPEDTPVYYCAATSVARNGSPMYYWGQGTLVTVSS | high polyreactivity
10 | QVQLVESGGGLVQAGGSLRLSCAASGRTFDAYAMGWYRQAPGKERELVATITSGGGTYYADSVKGRFTISRDNEKNTVYLQMNSLKPEDYAVYYCNKRYVVSRKYDYWGQGTQVTVSS | low polyreactivity
11 | QVQLVESGGGLVQAGGSLRLSCAASGSTLYVNAMGLYRQAPGKERELVAAISWRGDRTYYADSVKGRFTISRDNAKNNVYLQMNSLKPEDTAVYYCAKDYWWKGTTLYYNLDYWGQGTQVTVSS | high polyreactivity
12 | QVQLVESGGGLVQAGGSLRLSCAASGFTFVRYAMGWYRQAPGKERELVAAISRRGGSTYYADSVKGRFTISRDNAKNTVYLQMNSLKPEDTAVYYCAARAPYRRVRMNYWGQGTQVTVSS | high polyreactivity
13 | QVQLLESGAGLVQAGGSLRLSCADSGTFYGYAMGWYRQAPGKERELVAAITWSGGSTYYADSVKGRFTISRDNSKNTVYLQMISLKPEDTAVYYCAASLYSGYDSWGQGTQVTVSS | low polyreactivity
14 | QVQLVESAGGIVQAGGSLRLSCAASGFIFVRNAIGWYRQAPGKEREFVAAINSSGGRTYYADSVKGRFTISRDNAKNTVYLQMNSLKPEDPAVYYCAARPQPKKFYYWGLGTQVTVSS | high polyreactivity
15 | QVQLQESGGGLVHAGGSLRLSCAASGTISFINMMGWYRQAPGRERELVASINFGANTNYADSVKGRFTISRDNAKNTVYLQMNSLKPEDTAVYYCAVYDFDAYTLYYWGQGTLVTVSS | high polyreactivity
16 | QVQLVESGGGLVQAGGSLRLSCAASGLIFVRYAMGWYRQAPGKERELVAAITTGGRTYYADSVKGRFTISRDNAKNTVYLQMNSLKPEDTAVYYCAAQSFYGIYYGQQDYDYWGQGTQVTVSS | high polyreactivity
17 | QVQLVESGGGLVQAGGSLRLSCAASGRILILNAMGWYRQAPGKERELVAAITNGGSTNYADSVKGRFTISRDNAKNSVYLQMNSLKPEDTAVYYCAARLYSYDYYTVLKLFDYWGQGTQVTVSS | low polyreactivity
18 | QVQLVESGGGLVQAGGSLRLSCDASGSTFDVNTMGWYRQAPGKERELVAAIRLRGGSTYYADSVKGRFTISRDNAKNTVYLLMISLKPEDTAVYYCAADYTLIYDYCGQGTQVTVSS | low polyreactivity
19 | QVQLVESGGGLVQAGGSLRLSCAASGSTFRSNAMGWYRQAPGKERELVAAIRYSGGSTYYADSVKGRFTISRDNAKNTVYLQMNSLKQEDTAVYYCATRFRTYYVDHGYWGQGTQVTVSS | high polyreactivity
20 | QVQLVESGGGLVQAGGSLRLSCAASGSTISYYAMGWYRQAPGKERELVAAITWNGGSTYYADSVKGRFTISRDNAKNTVYLQMNSLKPEDTAVYYCAKDTYYYDYDYWGQGTQVTVSS | low polyreactivity
21 | QVHLVESGGGLVQAGGSLRLSCAASGSIFVYNAMGWYRQAPGKERELVAAIDTVGSTNYADSVKGRFTISRDNAKNTVYLQMNSLKPEDTAVYYCAVVTTYWSFYEQVIPSNYWGQGTQVTVSS | low polyreactivity
22 | QVQLVESGGGLVQAGGSLRLSCAASGSIFSANAMGWYRQAPGKERELVAAINSGGGTYYADSVKGRFTISRDNAKNTVFLQMNSLKPEDTAVYYCATDAVYIKGKYYTHEYWGQGTQVTVSS | high polyreactivity

Row | Sequence | polyreactivity (PSR sort gate)
23 | QVQLVDSGGGLGQAGGSLRLSCAASGIIISGYAMGWYRQAPGKERELVASIRSGSNTYYADSVKGRFTISRDNAKNTVYLQKNSLNPEDTAVYYCAARVVPATFRFIRYPNTYYYWGQGSQVTVSS | low polyreactivity
24 | QVQLVESGGGLVQAGGSLRLSCAASGYTFWQYAMGWYRQAPGKERELVATITSRGGSTYYADSVKGRFTISRDNAKNTVYLQMNSLKPEDTAVYYCNARRRYSTRRSDYWGQGTQVTVSS | high polyreactivity
25 | QVQLVESGGGLVQAGGSLRLSCAASGSTFKFYTMGWYRQAPGKERELVATIDWSGGSTYYADSVKGRFTISRDNAKNTVYLQMNSLKPEDTSVYYCAAYSRSRTTRLGKYYYWGQGTQVTVSS | high polyreactivity
26 | QVQLVESGGGLVQAGGSLRLICAASGSTFGRYAMGWYRQAPGKERELVARISWGGGSTYYADSVKGRFTISRDNAKNTVYLQMYSLKPEDTAVYYCATRVYRSAVSYDYWGQGTQVTVSS | high polyreactivity
27 | QFQLVESGRGLVQAGGSLRLSCAASGSIFYSYAMGRYRQAPGKEREFVATISDSSGSTYYADSVKGRFTISRDNAKNTVYLQMNSMIPEDTAVYYCATTDSYGYYGYGDWGQGTQVTVSS | low polyreactivity
28 | QVQHVESGGGLVQAGGSLRLSCAASGRTFYLNAMGWSRQAPGKARELVATISYTGDTTYYADSVKGRFTISRDNAKNTVYLQMNSLKPEDTAVYYCAKDYSLTQQRHAAYIVGSVDYWGQGTQVTVSS | high polyreactivity
29 | QVQLVESGGGLVQAGGSLRLSCAASGFIFFYYAMGWYRQAPGKERELVAAITRGGSTNYADSVKGRFTISRDNAKNTVYLQMNRLKPEDTAVYYCNKQYGRRHYWGDDYYWGQGTQVTVSS | low polyreactivity
30 | QVQLVESGGGLVQAGGSLRLSCAASGIIFDFYTMGWYRQAPGKERELVAAINSSGGSTYYADSVKGRFTISRDNAMNTVYLHMNSLKPADTAVYYCNAEYLFFWGQYDYWGQGTQVTVSS | high polyreactivity
31 | QVQLVESGGGLVQAGGSLRLSCAASGRTFVRYAMGWYRQAPGKERELVASIRTGGSTNYADSVKGRFTISRDNAKNTVYLQMNSLKPEDTAVYYCAAPRTYRPWGRMDYWGQGTQVTVSS | high polyreactivity
32 | QVQLVESGGGLVQAGGSLRLSCAASGFIFSRYAMGWYRQAPGKVRELVASISWGGGSTSYADSVKGRFTISRDNAKNTVYLQMNSLKPEDTAVYYCNARVRSHRFNYWGQGTQVTVSS | high polyreactivity
33 | QVQLVESGGGLVQAGGSLRLSCAASGRTLSGYAMGWYRQAPGKERELVAAISRRGGRTYYADSVKGRFTISRDNAKNTVYLQMNSLKPEDTAVYYCAAQVYTKTGDWQFYYWGQGTQVTVSS | high polyreactivity
34 | QVQLVESGGGLVQAGGSLRLSCAASGSTFGINTMGWYRQAPGKERELVATISQRGTRTYYADSVKGRFTISRDNAKNTVYLQMNSLKPEDTAVYYCNKDVYLYYYTRRSGRLDYWGQGTQVTVSS | high polyreactivity
35 | QVQLVESGGGLVQAGGSLRLSCAASGATFPVYAMGWYRQAPGKEWELVAAISRSGASTYYADSVKGRFTISRDNAKNTVYLQMNSLKPEDTAVYYCARGYQGRLKYEYWGQGTQVNVSS | low polyreactivity
36 | QVQLVESGGGLVQAGGSLRLSCAASGITFKYNAMGWYRQAPGKERELVAAISSGGNTYYADSVKGRFTISRDNAKNTVYLQMNSLKPEDTAVYYCAAPSYDTLWHDYWGQGTQVTVSS | low polyreactivity
37 | QVQLVESGGGLVQAGGSLRLSCAASGSISKFYAMGWYRQAPGKERELVAAISSGGITNYADSLKGRFTISRDNAKNTVYLQMNSLKPEDTAVYYCAKDYPYYEGAKYYYWGQGTQVTVSS | high polyreactivity
38 | QVQLVESGGGLVHAGGSLRLSCAASGFIFYYYTMGWYRQAPGKEREFVAAISSSGTITYYADSVKGRFTISRDNAKNTVYLQMNSLKPEDTAVYYCNAELYYPYEFWRFSGYDYWGQGTQVTVSS | low polyreactivity
39 | QVQLVESGGGLVQAGGSLRLSCAASGSTFKQYAMGWYSQAPGKERELVAAISLSGSRTYYADSVKVRFTISRDNAKNTVYLQMKSLIPVDTAVYYCAAELRSSAGWLYDYWGQGTQVTVSS | high polyreactivity
40 | QVQLVDSGGGLVQAGGSLRLSCAASGNTFVTYTMGWYRQAPGKERELVADISSGGSTYYADSVKGRFTISRDNAKNTVYLQMYSLKPEDTAVYYCAVLQAVFRSYYIYHRYYWGQGTKVTVSS | high polyreactivity
41 | QVQLVESGGGLVQAGGSLRLSCAAYGSIYSKYAMGWYRQAPGKEREMDAAISWSDGTTYYADSVKGLFTISRDNAKYTVYLQLNSLKPEDTAVYYCNTPPQWLGRYITITFDYWGQGSQVTVSS | low polyreactivity
42 | QVQLVESGGGFVQAGGSLRLSCAASGRTFIYNAMGWYRQAPGKERELVARISSGGGNTYYADSVKGRFTISRDNAKNPVYLQINSLKPEDTAVYYGAKGWRPSFSYYWGQGTQVTVSS | high polyreactivity
43 | QVQLVESGGGLVQAGGSLRLSCADSGSTYGGYAMGWYRQAPGKERELVAAISQSGGRTYYADSVKGRFTISRDNAKITVYFQMNSLKPEDTAVYYCAAYRTGYGRFTLDYWGQGSQVTVSS | high polyreactivity
